Assay results as given in patent US6534267 (dated 2003).

Biological target: the molecule itself
Assay: gel filtration of purified native Smac (self-association)

B1: 25-kDa Smac (second mitochondria-derived activator of caspase), native mature protein from HeLa cells (other)
chain: AVPIAQKSEPHSLSSEALMRRAVSLVTDSTSTFLSQTTYALIEAITEYTKAVYTLTSLYRQYTSLLGKMNSEEEDEVWQVIIGARAEMTSKHQEYLKLETTWMTAVGLSEMAAEAAYQTGADQASITARNHIQLVKLQVEEVHQLSRKAETKLAEAQIEELRQKTQEEGEERAESEQEAYLRED
notes: The HeLa protein is also about 25 kDa; Gel filtration points to a homotetramer; also called 25-kDa protein; native Smac
binding result: binds
